Read-outs that look alike come from different tables or passages of the source.
How the values were obtained:
ΔN-heimProfilin = molecular target: T1, ΔN-heimProfilin (Candidatus Heimdallarchaeota archaeon LC_3, UniProt A0A1Q9NL85); assay: NMR 1H-15N TROSY-HSQC titration; type: binding; conditions: 25 mM Tris-HCl pH 7.5, 50 mM NaCl, 5% glycerol, 298 K; acyl chains not given
T1 construct: gene HeimC3_27980; residues 1-23 (N-terminal extension) deleted; E. coli Rosetta DE3; His6-SUMO tag cleaved with Ulp1; 15N labelled; PDB 6YRR is the full-length parent

[1] = molecular target: both the full-length protein and ΔN-thorProfilin; assay: NMR titration; 1H-15N TROSY-HSQC; fixed thorProfilin or ΔN-thorProfilin (200 μM), increasing polyproline … (0, 5, 7 mM in the legend); 25 mM Tris-HCl pH 6.8, 150 mM NaCl; KD from fits of chemical shifts of a few residues
[2] = molecular target: both the full-length protein and ΔN-thorProfilin; assay: as above; remark: listed apart in the source
[3] = molecular target: Heimdallarchaeota LC3 profilin (heimProfilin) (Candidatus Heimdallarchaeota archaeon LC_3); assay: ITC; profilin in the cell (approx. 0.1-0.5 mM), 20 injections of 1.0-14 mM polyproline (VASP); 50 mM Na3PO4 pH 7.5, 50 mM NaCl; 25 °C; triplicates
[4] = molecular target: ΔN-heimProfilin (Candidatus Heimdallarchaeota archaeon LC_3); assay: as above

## PIP2
ΔN-heimProfilin
  affinity: ~ 0.5–1 ± 0.3 mM

B1: polyproline from VASP (…) (peptide)
peptide: PPPAPPLPAAQ
[1]
  Kd: 200 to 500 µM
[2]
  Kd: 250 to 500 µM

B2: polyproline motif of VASP (…) (peptide)
peptide: GAGGGPPPAPPLPAAQ
[3]
  Kd: 3300 µM
[4]
  Kd: 300 µM

— PMC8410842, “Heimdallarchaea encodes profilin with eukaryotic-like actin regulation and polyproline binding” (Communications Biology, 2021)
